The values that follow come from patent US20100047243A1 (published 2010).

This experiment concerns the target T1, recombinant cynomolgus macaque IGF-1R (IGF-1R-Fc fusion protein of Example 4) (cynomolgus macaque (Macaca fascicularis)).
T1 construct: also called Cynomolgus IGF-1R; cyno IGF-1R
Description: Biacore T100, antibody captured on Protein A, recombinant cynomolgus IGF-1R analyte (256-16 nM), HBS-EP, 37 C.
Description: Protein A was immobilised on a CM5 surface by primary amine coupling in accordance with the manufacturers standard protocols. Antibodies against IGF-1R were captured on this surface and after a period of stabilisation recombinant human or cynomolgus IGF-1R was injected over this captured surface. […] Data was analysed using the 1:1 model inherent to the Biacore machine, the work was carried out on the T100 using HBS-EP running buffer at 37° C.

T1 sequence (chain, as listed by the source limits assumed): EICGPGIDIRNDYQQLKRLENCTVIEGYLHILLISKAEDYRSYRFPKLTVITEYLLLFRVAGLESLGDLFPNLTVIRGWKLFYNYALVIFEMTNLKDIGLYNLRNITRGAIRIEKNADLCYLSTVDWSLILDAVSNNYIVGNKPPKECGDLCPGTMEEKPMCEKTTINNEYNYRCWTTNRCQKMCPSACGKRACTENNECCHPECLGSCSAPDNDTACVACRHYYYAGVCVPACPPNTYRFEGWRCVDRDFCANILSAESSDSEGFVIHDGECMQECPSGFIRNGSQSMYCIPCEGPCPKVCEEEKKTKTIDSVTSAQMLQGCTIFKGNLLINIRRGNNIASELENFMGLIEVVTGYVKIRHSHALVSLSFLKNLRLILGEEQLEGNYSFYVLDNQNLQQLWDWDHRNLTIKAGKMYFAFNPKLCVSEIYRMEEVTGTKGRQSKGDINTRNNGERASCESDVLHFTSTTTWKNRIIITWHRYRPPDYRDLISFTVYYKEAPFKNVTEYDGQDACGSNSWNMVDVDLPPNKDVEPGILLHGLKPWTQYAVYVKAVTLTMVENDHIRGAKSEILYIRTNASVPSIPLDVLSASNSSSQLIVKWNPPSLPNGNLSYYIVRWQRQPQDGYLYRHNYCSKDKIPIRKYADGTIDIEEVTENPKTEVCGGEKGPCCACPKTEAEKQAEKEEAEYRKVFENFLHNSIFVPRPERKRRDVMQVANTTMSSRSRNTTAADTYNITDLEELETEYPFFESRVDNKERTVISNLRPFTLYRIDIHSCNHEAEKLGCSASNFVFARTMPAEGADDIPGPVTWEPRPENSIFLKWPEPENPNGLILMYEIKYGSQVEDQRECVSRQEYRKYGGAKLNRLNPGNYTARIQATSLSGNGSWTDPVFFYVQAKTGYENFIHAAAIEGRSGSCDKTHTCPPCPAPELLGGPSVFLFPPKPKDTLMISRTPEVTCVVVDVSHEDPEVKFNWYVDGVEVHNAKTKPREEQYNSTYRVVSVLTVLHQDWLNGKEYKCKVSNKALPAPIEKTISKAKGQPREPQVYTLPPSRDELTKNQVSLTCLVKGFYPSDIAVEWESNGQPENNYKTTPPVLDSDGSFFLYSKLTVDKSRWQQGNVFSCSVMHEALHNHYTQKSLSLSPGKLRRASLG

B1: 6E11 chimeric antibody (antibody, human IgG1, kappa, V domains shown)
VH: EVQLQQSGPELVKPGASVRISCKASGYAFTDYYMNWVKQSHGKSLEWVANINPNNGGTNYNQKFKDKATLTVDKSSNTAYMELRSLTSEDTAVYYCARWILYYGRSKWYFDVWGTGTLVTVSS
VL: DVLMTQTPLSLPVSLGDHASISCRSSQSIVQSNGDTYLEWYLQKPGQSPKLLIYRISNRFSGVPDRFSGSGSGTDFTLKISRVEAEDLGVYYCFQGSHVPYTFGGGTKLEIKR
notes: Murine 6E11 variable domains on human IgG1/kappa wild type constant regions; also called 6E11 chimera; 6E11 chimaera
As for B1, the Kd came to 0.19 nM.
